T1: recombinant cynomolgus NKG2D-Fc fusion protein (cynomolgus; human, UniProt P61252 73-216)
T1 construct: extracellular domain; not shown: human IgG1 Fc domain
T1 sequence (looked up): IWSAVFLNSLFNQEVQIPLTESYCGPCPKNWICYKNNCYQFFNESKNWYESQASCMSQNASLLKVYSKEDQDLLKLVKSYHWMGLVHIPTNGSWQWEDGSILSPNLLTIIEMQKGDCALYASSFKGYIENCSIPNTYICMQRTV


Biological target: T1, recombinant cynomolgus NKG2D-Fc fusion …
Test: ELISA on coated NKG2D-Fc

binding result	Binder
binds	ADI-29403 (antibody, V domains shown) VH: QVQLQQWGAGLLKPSETLSLTCAVYGGSFSGYYWSWIRQPPGKGLEWIGEIDHSGSTNYNPSLKSRVTISVDTSKNQFSLKLSSVTAADTAVYYCARARGPWSFDPWGQGTLVTVSS VL: not shown
binds	ADI-27705 (antibody, V domains shown) VH: QVQLQQWGAGLLKPSETLSLTCAVYGGSFSGYYWSWIRQPPGKGLEWIGEIDHSGSTNYNPSLKSRVTISVDTSKNQFSLKLSSVTAADTAVYYCARARGPWSFDPWGQGTLVTVSS VL: not shown
binds	ADI-27743 (antibody, V domains shown) VH: QVQLQQWGAGLLKPSETLSLTCAVYGGSFSGYYWSWIRQPPGKGLEWIGEIDHSGSTNYNPSLKSRVTISVDTSKNQFSLKLSSVTAADTAVYYCARARGPWSFDPWGQGTLVTVSS VL: not shown
binds	ADI-29429 (antibody, V domains shown) VH: QVQLQQWGAGLLKPSETLSLTCAVYGGSFSGYYWSWIRQPPGKGLEWIGEIDHSGSTNYNPSLKSRVTISVDTSKNQFSLKLSSVTAADTAVYYCARARGPWSFDPWGQGTLVTVSS VL: DIQMTQSPSTLSASVGDRVTITCRASQSIGSWLAWYQQKPGKAPKLLIYKASSLESGVPSRFSGSGSGTEFTLTISSLQPDDFATYYCQQYELYSYTFGGGTKVEIK
binds	ADI-29421 (antibody, V domains shown) VH: QVQLQQWGAGLLKPSETLSLTCAVYGGSFSGYYWSWIRQPPGKGLEWIGEIDHSGSTNYNPSLKSRVTISVDTSKNQFSLKLSSVTAADTAVYYCARARGPWSFDPWGQGTLVTVSS VL: not shown
binds	ADI-29426 (antibody, V domains shown) VH: QVQLQQWGAGLLKPSETLSLTCAVYGGSFSGYYWSWIRQPPGKGLEWIGEIDHSGSTNYNPSLKSRVTISVDTSKNQFSLKLSSVTAADTAVYYCARARGPWSFDPWGQGTLVTVSS VL: DIQMTQSPSTLSASVGDRVTITCRASQSIGSWLAWYQQKPGKAPKLLIYKASSLESGVPSRFSGSGSGTEFTLTISSLQPDDFATYYCQQYHSFPTFGGGTKVEIK
binds	ADI-29401 (antibody, V domains shown) VH: QVQLQQWGAGLLKPSETLSLTCAVYGGSFSGYYWSWIRQPPGKGLEWIGEIDHSGSTNYNPSLKSRVTISVDTSKNQFSLKLSSVTAADTAVYYCARARGPWSFDPWGQGTLVTVSS VL: DIQMTQSPSTLSASVGDRVTITCRASQSIGSWLAWYQQKPGKAPKLLIYKASSLESGVPSRFSGSGSGTEFTLTISSLQPDDFATYYCQQYDIYPTFGGGTKVEIK
binds	ADI-29399 (antibody, V domains shown) VH: QVQLQQWGAGLLKPSETLSLTCAVYGGSFSGYYWSWIRQPPGKGLEWIGEIDHSGSTNYNPSLKSRVTISVDTSKNQFSLKLSSVTAADTAVYYCARARGPWSFDPWGQGTLVTVSS VL: not shown
binds	ADI-27741 (antibody, V domains shown) VH: QVQLQQWGAGLLKPSETLSLTCAVYGGSFSGYYWSWIRQPPGKGLEWIGEIDHSGSTNYNPSLKSRVTISVDTSKNQFSLKLSSVTAADTAVYYCARARGPWSFDPWGQGTLVTVSS VL: DIQMTQSPSTLSASVGDRVTITCRASQSIGSWLAWYQQKPGKAPKLLIYKASSLESGVPSRFSGSGSGTEFTLTISSLQPDDFATYYCQQSNSYYTFGGGTKVEIK
binds	ADI-29407 (antibody, V domains shown) VH: QVQLQQWGAGLLKPSETLSLTCAVYGGSFSGYYWSWIRQPPGKGLEWIGEIDHSGSTNYNPSLKSRVTISVDTSKNQFSLKLSSVTAADTAVYYCARARGPWSFDPWGQGTLVTVSS VL: DIQMTQSPSTLSASVGDRVTITCRASQSISSWLAWYQQKPGKAPKLLIYKASSLESGVPSRFSGSGSGTEFTLTISSLQPDDFATYYCQQYQSFPTFGGGTKVEIK
binds	ADI-29404 (antibody, V domains shown, also called F04) VH: QVQLQQWGAGLLKPSETLSLTCAVYGGSFSGYYWSWIRQPPGKGLEWIGEIDHSGSTNYNPSLKSRVTISVDTSKNQFSLKLSSVTAADTAVYYCARARGPWSFDPWGQGTLVTVSS VL: DIQMTQSPSTLSASVGDRVTITCRASQSISSWLAWYQQKPGKAPKLLIYKASSLESGVPSRFSGSGSGTEFTLTISSLQPDDFATYYCEQYDSYPTFGGGTKVEIK
binds	ADI-29405 (antibody, V domains shown) VH: QVQLQQWGAGLLKPSETLSLTCAVYGGSFSGYYWSWIRQPPGKGLEWIGEIDHSGSTNYNPSLKSRVTISVDTSKNQFSLKLSSVTAADTAVYYCARARGPWSFDPWGQGTLVTVSS VL: DIQMTQSPSTLSASVGDRVTITCRASQSISSWLAWYQQKPGKAPKLLIYKASSLESGVPSRFSGSGSGTEFTLTISSLQPDDFATYYCQQYGSFPTFGGGTKVEIK
binds	ADI-29419 (antibody, V domains shown) VH: QVQLQQWGAGLLKPSETLSLTCAVYGGSFSGYYWSWIRQPPGKGLEWIGEIDHSGSTNYNPSLKSRVTISVDTSKNQFSLKLSSVTAADTAVYYCARARGPWSFDPWGQGTLVTVSS VL: not shown
binds	ADI-29447 (antibody, V domains shown, also called F47) VH: QVQLQQWGAGLLKPSETLSLTCAVYGGSFSGYYWSWIRQPPGKGLEWIGEIDHSGSTNYNPSLKSRVTISVDTSKNQFSLKLSSVTAADTAVYYCARARGPWSFDPWGQGTLVTVSS VL: DIQMTQSPSTLSASVGDRVTITCRASQSISSWLAWYQQKPGKAPKLLIYKASSLESGVPSRFSGSGSGTEFTLTISSLQPDDFATYYCQQYDTFITFGGGTKVEIK
binds	ADI-29425 (antibody, V domains shown) VH: QVQLQQWGAGLLKPSETLSLTCAVYGGSFSGYYWSWIRQPPGKGLEWIGEIDHSGSTNYNPSLKSRVTISVDTSKNQFSLKLSSVTAADTAVYYCARARGPWSFDPWGQGTLVTVSS VL: not shown
binds	ADI-28226 (antibody, V domains shown, also called C26) VH: QVQLQQWGAGLLKPSETLSLTCAVYGGSFSGYYWSWIRQPPGKGLEWIGEIDHSGSTNYNPSLKSRVTISVDTSKNQFSLKLSSVTAADTAVYYCARARGPWSFDPWGQGTLVTVSS VL: DIQMTQSPSTLSASVGDRVTITCRASQSISSWLAWYQQKPGKAPKLLIYKASSLESGVPSRFSGSGSGTEFTLTISSLQPDDFATYYCQQYGSFPITFGGGTKVEIK
binds	ADI-27740 (antibody, V domains shown, also called A40) VH: QVQLQQWGAGLLKPSETLSLTCAVYGGSFSGYYWSWIRQPPGKGLEWIGEIDHSGSTNYNPSLKSRVTISVDTSKNQFSLKLSSVTAADTAVYYCARARGPWSFDPWGQGTLVTVSS VL: DIQMTQSPSTLSASVGDRVTITCRASQSIGSWLAWYQQKPGKAPKLLIYKASSLESGVPSRFSGSGSGTEFTLTISSLQPDDFATYYCQQYHSFYTFGGGTKVEIK
binds	ADI-29424 (antibody, V domains shown) VH: QVQLQQWGAGLLKPSETLSLTCAVYGGSFSGYYWSWIRQPPGKGLEWIGEIDHSGSTNYNPSLKSRVTISVDTSKNQFSLKLSSVTAADTAVYYCARARGPWSFDPWGQGTLVTVSS VL: DIQMTQSPSTLSASVGDRVTITCRASQSISSWLAWYQQKPGKAPKLLIYKASSLESGVPSRFSGSGSGTEFTLTISSLQPDDFATYYCQQYDSFITFGGGTKVEIK
binds	ADI-27749 (antibody, V domains shown, also called A49) VH: EVQLVESGGGLVKPGGSLRLSCAASGFTFSSYSMNWVRQAPGKGLEWVSSISSSSSYIYYADSVKGRFTISRDNAKNSLYLQMNSLRAEDTAVYYCARGAPMGAAAGWFDPWGQGTLVTVSS VL: DIQMTQSPSSVSASVGDRVTITCRASQGISSWLAWYQQKPGKAPKLLIYAASSLQSGVPSRFSGSGSGTDFTLTISSLQPEDFATYYCQQGVSFPRTFGGGTKVEIK
binds	ADI-29378 (antibody, V domains shown, also called E78) VH: QVQLVQSGAEVKKPGASVKVSCKASGYTFTSYYMHWVRQAPGQGLEWMGIINPSGGSTSYAQKFQGRVTMTRDTSTSTVYMELSSLRSEDTAVYYCAREGAGFAYGMDYYYMDVWGKGTTVTVSS VL: EIVLTQSPATLSLSPGERATLSCRASQSVSSYLAWYQQKPGQAPRLLIYDASNRATGIPARFSGSGSGTDFTLTISSLEPEDFAVYYCQQSDNWPFTFGGGTKVEIK
binds	ADI-27727 (antibody, V domains shown) VH: QVQLVQSGAEVKKPGSSVKVSCKASGGTFSSYAISWVRQAPGQGLEWMGGIIPIFGTANYAQKFQGRVTITADESTSTAYMELSSLRSEDTAVYYCARGDSSIRHAYYYYGMDVWGQGTTVTVSS VL: not shown
